B1: FCHO1 (parent)
chain: FTSSPSPFSSSSPENVEDSGLDSP

Variants of: B1
Assay: protein stability index of a GFP-peptide fusion (GPS, HEK-293T) (PSI 1-6); higher = more stable
Details: c terminus: a fixed tail appended
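Note: lentivirally expressed fusions sorted by FACS into six bins by GFP to DsRed ratio, PSI derived from sequencing read proportions per bin multiplied by bin number.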

Row | Variant | protein stability index
1 | FTSSPSPFSSSSPENVEDSRLDSP | 1.91
2 | FTSSPSPFSSSSPENVEDSVLDSP | 1.64
3 | FTSSPSPFSSSSPENVEDSSLDSP | 2.09
4 | FTSSPSPFSSSSPENVEDSWLDSP | 1.56
5 | FTSSPSPFSSSSPENVEDSCLDSP | 2.31
6 | FTSSPSPFSSSSPENVEDSNLDSP | 1.98
7 | FTSSPSPFSSSSPENVEDSQLDSP | 1.99
8 | FTSSPSPFSSSSPENVEDSMLDSP | 2.07
9 | FTSSPSPFSSSSPENVEDSILDSP | 1.97
10 | FTSSPSPFSSSSPENVEDSTLDSP | 3.02
11 | FTSSPSPFSSSSPENVEWSGLDSP | 1.92
12 | FTSSPSPFSSSSPENVEHSGLDSP | 2.7
13 | FTSSPSPFSSSSPENVEKSGLDSP | 1.91
14 | FTSSPSPFSSSSPENVEPSGLDSP | 2.01
15 | FTSSPSPFSSSSPENVEMSGLDSP | 1.99
16 | FTSSPSPFSSSSPENVENSGLDSP | 2.42
17 | FTSSPSPFSSSSPENVEASGLDSP | 1.62
18 | FTSSPSPFSSSSPENVEQSGLDSP | 1.93
19 | FTSSPSPFSSSSPENVEVSGLDSP | 1.73
20 | FTSSPSPFSSSSPENVEFSGLDSP | 2.26
21 | FTSSPSPFSSSSPENVETSGLDSP | 2.03
22 | FTSSPSPFSSSSPENVESSGLDSP | 1.82
23 | FTSSPSPFSSSSPENVECSGLDSP | 2.17
24 | FTSSPSPFSSSSPENVELSGLDSP | 2.05

Row | Variant | protein stability index
25 | FTSSPSPFSSSSPENVEISGLDSP | 2.01
26 | FTSSPSPFSSSSPENVEESGLDSP | 1.92
27 | FTSSPSPFSSSSPENVEYSGLDSP | 2.27
28 | FTSSPSPFSSSSPENVERSGLDSP | 1.6
29 | FTSSPSPFSSSSPENVEGSGLDSP | 1.83
30 | FTSSPSPFSSSSPENVEDLGLDSP | 2.32
31 | FTSSPSPFSSSSPENVEDGGLDSP | 1.64
32 | FTSSPSPFSSSSPENVEDVGLDSP | 2
33 | FTSSPSPFSSSSPENVEDPGLDSP | 2.26
34 | FTSSPSPFSSSSPENVEDHGLDSP | 2.46
35 | FTSSPSPFSSSSPENVEDQGLDSP | 2.21
36 | FTSSPSPFSSSSPENVEDFGLDSP | 2.24
37 | FTSSPSPFSSSSPENVEDNGLDSP | 2.06
38 | FTSSPSPFSSSSPENVEDMGLDSP | 1.5
39 | FTSSPSPFSSSSPENVEDDGLDSP | 1.9
40 | FTSSPSPFSSSSPENVEDYGLDSP | 2.78
41 | FTSSPSPFSSSSPENVEDIGLDSP | 2.27
42 | FTSSPSPFSSSSPENVEDWGLDSP | 1.57
43 | FTSSPSPFSSSSPENVEDKGLDSP | 1.95
44 | FTSSPSPFSSSSPENVEDRGLDSP | 2.39
45 | FTSSPSPFSSSSPENVEDTGLDSP | 2.34
46 | FTSSPSPFSSSSPENVEDEGLDSP | 1.81
47 | FTSSPSPFSSSSPENVEDAGLDSP | 2.04
48 | FTSSPSPFSSSSPENVEDCGLDSP | 2.22

Row | Variant | protein stability index
49 | FTSSPSPFSSSSPENVNDSGLDSP | 2.1
50 | FTSSPSPFSSSSPENVHDSGLDSP | 1.98
51 | FTSSPSPFSSSSPENVADSGLDSP | 1.5
52 | FTSSPSPFSSSSPENVMDSGLDSP | 2.32
53 | FTSSPSPFSSSSPENVLDSGLDSP | 1.88
54 | FTSSPSPFSSSSPENVPDSGLDSP | 1.8
55 | FTSSPSPFSSSSPENVSDSGLDSP | 2.53
56 | FTSSPSPFSSSSPENVCDSGLDSP | 1.68
57 | FTSSPSPFSSSSPENVQDSGLDSP | 1.85
58 | FTSSPSPFSSSSPENVGDSGLDSP | 1.96
59 | FTSSPSPFSSSSPENVKDSGLDSP | 1.78
60 | FTSSPSPFSSSSPENVRDSGLDSP | 1.86
61 | FTSSPSPFSSSSPENVFDSGLDSP | 2.21
62 | FTSSPSPFSSSSPENVIDSGLDSP | 1.67
63 | FTSSPSPFSSSSPENVTDSGLDSP | 2.26
64 | FTSSPSPFSSSSPENVYDSGLDSP | 2.23
65 | FTSSPSPFSSSSPENVWDSGLDSP | 1.65
66 | FTSSPSPFSSSSPENVDDSGLDSP | 1.84
67 | FTSSPSPFSSSSPENVVDSGLDSP | 1.3
68 | FTSSPSPFSSSQPENVEDSGLDSP | 2.26
69 | FTSSPSPFSSSTPENVEDSGLDSP | 2.01
70 | FTSSPSPFSSSWPENVEDSGLDSP | 1.98
71 | FTSSPSPFSSSRPENVEDSGLDSP | 1.56
72 | FTSSPSPFSSSYPENVEDSGLDSP | 1.75

Row | Variant | protein stability index
73 | FTSSPSPFSSSVPENVEDSGLDSP | 2.56
74 | FTSSPSPFSSSNPENVEDSGLDSP | 2.37
75 | FTSSPSPFSSSPPENVEDSGLDSP | 2.25
76 | FTSSPSPFSSSSGENVEDSGLDSP | 1.93
77 | FTSSPSPFSSSSIENVEDSGLDSP | 2.05
78 | FTSSPSPFSSSSEENVEDSGLDSP | 2.44
79 | FTSSPSPFSSSSCENVEDSGLDSP | 1.53
80 | FTSSPSPFSSSSQENVEDSGLDSP | 2.39
81 | FTSSPSPFSSSSMENVEDSGLDSP | 1.58
82 | FTSSPSPFSSSSNENVEDSGLDSP | 1.66
83 | FTSSPSPFSSSSTENVEDSGLDSP | 1.77
84 | FTSSPSPFSSSSWENVEDSGLDSP | 1.83
85 | FTSSPSPFSSSSKENVEDSGLDSP | 2.14
86 | FTSSPSPFSSSSHENVEDSGLDSP | 2.29
87 | FTSSPSPFSSSSLENVEDSGLDSP | 2.21
88 | FTSSPSPFSSSSYENVEDSGLDSP | 2.04
89 | FTSSPSPFSSSSRENVEDSGLDSP | 1.85
90 | FTSSPSPFSSSSAENVEDSGLDSP | 1.77
91 | FTSSPSPFSSSSVENVEDSGLDSP | 2.28
92 | FTSSPSPFSSSSDENVEDSGLDSP | 2.1
93 | FTSSPSPFSSSSSENVEDSGLDSP | 2.13
94 | FTSSPSPFSSSSFENVEDSGLDSP | 2.49
